From patent publication US20100291075A1 (THERACLONE SCIENCES, published 2010)

Molecular target: recombinant GPI-linked rhesus GM-CSF on the surface of transiently transfected 293 cells (rhesus)

B1: 1783J22 human monoclonal antibody (whole IgG) (antibody, V domains shown)
VH: EVQLLQSGGGLTHPGGSLRLSCAASGFPFHKYTMTWVRQPPGKGLEWVSSVSGVNGKTYYSPSVRGRAIVSRDDSNSMLFLEIKNMTAGDTALYFCAKGPGGHLHYYYGLDVWGHGTSVTVSS
VL: DIQMTQSPSSLSASIGDRVTISCRASQAINNYVAWFQQSAGKAPKSLIYGASNLQPGVPPRFSGSVSGTNFSLTIDGLQSEDFATYFCQNYFGYPLTFGGGTTLEIKR
B1 was tested, and the “EC50 (read off the curve)” value was roughly 0.05 µg/mL.
